Laboratory results as given in paper PMC10132759.

Molecular target: GAS7b-Avitag, biotinylated (mouse) (UniProt Q60780)
Assay: BLI; BLItz; 0.1 μM biotinylated Avi-tagged GAS7b, Nck or WISH captured on streptavidin (SAX) biosensors; 0.25 μM WASP or its mutants as analyte; 10 mM tris-HCl pH 7.5, 150 mM NaCl, 1 mM EDTA; local fit to a 1:1 model, Kd = Koff/Kon; n = 3

Chain of N-WASP without a tag (Q95107 whole entry): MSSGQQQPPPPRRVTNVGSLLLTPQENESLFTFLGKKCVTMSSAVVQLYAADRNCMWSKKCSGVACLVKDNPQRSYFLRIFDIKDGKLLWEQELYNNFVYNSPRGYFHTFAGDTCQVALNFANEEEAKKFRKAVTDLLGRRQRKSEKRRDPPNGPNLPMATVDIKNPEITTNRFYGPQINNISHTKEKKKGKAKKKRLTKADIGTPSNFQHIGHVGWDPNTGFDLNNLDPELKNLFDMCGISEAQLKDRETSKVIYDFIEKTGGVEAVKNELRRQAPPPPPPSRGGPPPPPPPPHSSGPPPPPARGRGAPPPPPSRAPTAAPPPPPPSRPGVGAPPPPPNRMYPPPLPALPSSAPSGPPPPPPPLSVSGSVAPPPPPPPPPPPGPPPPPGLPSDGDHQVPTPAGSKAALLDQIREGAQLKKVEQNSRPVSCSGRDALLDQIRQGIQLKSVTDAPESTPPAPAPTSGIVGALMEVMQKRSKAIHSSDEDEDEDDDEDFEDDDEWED

Q: With “N-WASP without a tag (from UniProt Q95107 1-505) (natural protein)” as the substance, how does the Kd read?
A: 4.23 nM

Q: “WASP (FLAG tag) (from UniProt P42768 1-502) (natural protein)” was tested. Which Kd did it give?
A: 4.11 nM

Q: How did the Kd turn out when “WASP P359T (FLAG tag) (from UniProt P42768 1-502) (natural protein)” was run?
A: 6.89 nM

Q: Which Kd does the source give for “WASP P373S (FLAG tag) (from UniProt P42768 1-502) (natural protein)” here?
A: 15 nM

Q: How did the Kd turn out when “WASP S339Y (FLAG tag) (from UniProt P42768 1-502) (natural protein)” was run?
A: 7.13 nM
